Laboratory results from patent publication US20250122242A1, “SELECTION SYSTEMS, PEPTIDES DETERMINED THEREWITH, AND METHODS OF USING SAME” (Wisconsin Alumni Research Foundation, priority 2023, published 2025).

Columns and labels:
[1] = biological target: T1, Aβ42-T7n (UniProt P00573+P05067); conditions: for phage propagation activity (fitness) on Aβ42-T7n selection: clonal SP encoding the sequence
From the text: Therefore, we turned to a split-T7 RNA polymerase (T7 RNAP) reporter used to evolve proteins with improved soluble expression.^33 In our new selection, host E. coli express an aggregation-prone protein (APP) fused to the N-terminal half of split-T7 RNAP (T7n). When the APP-T7n fusion is translated, it misfolds due to the APP, preventing T7n from associating with the C-terminal half of split-T7 RNAP (T7c; FIG. 2A). If a SP-encoded inhibitor binds to and prevents APP aggregation, the fused T7n will remain folded and join with T7c to produce full-length T7 RNAP. The reconstituted T7 RNAP then transcribes gIII, which we place under control of the T7 promoter (PT7), producing pill and allowing the SP to reproduce (FIGS. 2A and 2B).
We used the SICLOPPS method to biosynthesize cyclic peptides that can be selected in E. coli.^15 In SICLOPPS, a precursor fusion consisting of the C-terminal half of the Ssp DnaE split intein, the peptide sequence to be cyclized, and the N-terminal half of the same split intein undergoes intein splicing after translation to produce head-to-tail cyclized peptides (FIG. 7).
Strain S206035 was used for plasmid cloning, amplification, and phage assays. Strain S220835 was used for SP cloning and plaque assays. Plasmids and SPs were cloned by USER assembly or blunt-end ligation. Competent cells were prepared and transformed using the TSS method. Phage propagation and plaque assays were performed as previously described.^54 Unless otherwise noted, phage propagation assays used an input of […] phage to infect a 2 mL culture of host cells.

[2] = system: Aβ42-GFP; experiment: Aβ42-GFP folding reporter fluorescence assay; type: cell-based, E. coli; conditions: expressed from plasmid, 0.04 mM IPTG, compared with CKVWQLL (FIG. 3H)
Sequence of Aβ42-GFP (P05067 672-713): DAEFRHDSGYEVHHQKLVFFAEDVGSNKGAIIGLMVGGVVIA
Protocol: (§1) Single colonies of S2060s transformed with pBL066c and SICLOPPS plasmid were used to make overnight cultures in 2×YT with maintenance antibiotics. The overnight culture was diluted (1:100) into 1 mL DRM on a 96 deep-well plate (VWR, 75870-796) with maintenance antibiotics and IPTG (0, 0.04, 0.2, or 1 mM). The diluted culture was incubated at 37° C. with shaking for 2.5 h, after which aTc (200 ng/mL) was added. 100 μL of the culture was transferred onto a black clear-bottom 96-well plate (VWR, 89131-680) to measure fluorescence signal 2, 3, 5 h after addition of aTc. GFP fluorescence signal (excitation wavelength=485 nm, emission wavelength=535 nm) was then measured using a Tecan M Plex microplate reader.

[3] = system: E. coli; experiment: Growth (OD600) of cells expressing SICLOPPS precursors upon IPTG induction; conditions: OD600, IPTG induction (FIG. 9B)
Protocol: Data reflects 3 biological replicates plotted as individual values.
as §1

[4] = biological target: T1, Aβ42-T7n; conditions: cyclo-CX6 library, seven rounds on Aβ42-T7n, deep sequencing
Protocol: Single colonies of host cells transformed with the appropriate selection plasmids were used to make overnight cultures in 2×YT with maintenance antibiotics. The overnight culture was diluted (1:100) into 4-5 mL DRM with maintenance antibiotics and incubated at 37° C. with shaking until the OD600 of the culture reached ˜0.5, upon which the expanded phage library was added at a titer of 1×10^6 pfu/mL. The culture was incubated at 37° C. with shaking overnight (13-18 h). The next day, the culture was centrifuged at 8,000 rcf for 2 min to obtain the supernatant containing phage. The collected phage was diluted into fresh host cell cultures (10 to 1,000-fold) for the next round of selection, while the rest was stored at 4° C. for downstream analysis. This process was repeated until a significant increase in phage propagation was observed compared with the parent library. Both positive and negative selection rounds were performed using this procedure.
Sample preparation. Phage stocks collected from the final rounds of library selection were first amplified using LY0145 and LY0146. The PCR product was purified, and adapters added using LY0147 and LY0148. […] The final PCR product was purified, and the concentration measured by Nanodrop. […]
High-throughput sequencing and data analysis. […] Sequencing reads were demultiplexed by UWBC and analyzed using custom-written Python scripts.

T1 sequence (P05067+P00573 fused): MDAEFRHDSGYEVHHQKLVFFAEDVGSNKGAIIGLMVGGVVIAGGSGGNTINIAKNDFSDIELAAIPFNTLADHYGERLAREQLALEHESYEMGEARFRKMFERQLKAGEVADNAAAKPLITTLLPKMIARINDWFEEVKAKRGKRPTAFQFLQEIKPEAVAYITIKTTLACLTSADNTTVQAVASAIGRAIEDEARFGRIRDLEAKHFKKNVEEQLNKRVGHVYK

In the case of “CRVYQVL (cyclic; Circular) [cyclo-CRVYQVL]”, the “phage propagation activity (fitness) on Aβ42-T7n selection” value [1] is reported as “more modest fitness”, the “activity in Aβ42-GFP folding reporter assay” value [2] is reported as “appeared inactive” and the “effect of construct induction on cell growth” value [3] is reported as “greatly decreased cell growth”.

With “CRVWCAR (cyclic; Circular) [cyclo-CRVWCAR]” the “phage propagation activity (fitness) on Aβ42-T7n selection” value [1] was “robust propagation”, the “activity in Aβ42-GFP folding reporter assay” value [2] was “comparable activity to CKVWQLL” and the “share of total sequencing reads in final SP pool” value [4] was roughly 65%.

“cyclo-CKVWQLL [CKVWQLL SP, reference compound]” was tested, and the “discrimination between active SP and scrambled control (phage propagation)” value ([1]; evolved SP (PACE 1 clone 2) (FIG. 2D)) was roughly 300 fold and the “increase in phage proliferation compared to SP carrying scrambled control” value ([1]; parent SP, vs CVQWLKL SP (FIG. 8A)) was roughly 500 fold.
